Biological target: T1, TERT (telomerase reverse transcriptase), catalytic subunit of telomerase (human, UniProt O14746 1-1132)
T1 construct: also called human TERT
Experiment: co-expression in HEK293T cells, immunoprecipitation with anti-HA antibody, Western blotting with anti-TERT antibody (FIG. 3)
Protocol: After culturing 4×10⁵ HEK293T cells at 37° C. overnight under the atomosphere of 5% CO₂ (in a dish with 60 mm diameter), 2 μg of the expression plasmid of HA-tagged MAPKAPK3 or pcDNA3.1 (+) as a negative control was transfected together with 2 μg of TERT expression plasmid using FuGENE6 Transfection Reagent (Roche). After 2 days of culturing, cells were washed with ice-cold phosphate buffered physiologically saline (PBS (−)), collected and suspended in 500 μl of cell lysis buffer (20 mM Tris-HCl, pH7.4/150 mM NaCl/1 mM ethylenediaminetetraacetic acid (EDTA)/2.5 mM sodium pyrophsphate)/1 mM β-glycerophsphate/1 mM Na₃VO₄/protease inhibitor cocktail), and left to stand on ice for 10 minutes. Subsequently, centrifugation was conducted at 4° C. for 10 minutes at 14,000 rpm to collect the supernatant for use as a cell lysate. Then, 10 μl of agarose-conjugated normal rabbit IgG (Sigma) was added to 500 μl of the cell lysate and subjected to overturned mixing at 4° C. for 30 minutes, followed by subjecting to centrifugation to collect the supernatant. 10 μl of agarose-conjugated anti-HA antibody (Y11, SantaCruz) was added to the collected supernatant, and subjected to overturned mixing at 4° C. overnight, followed by subjecting to centrifugation to collect the agarose beads. […] Subsequently, the binding protein was detected by Western blotting using an anti-TERT antibody (L-20, SantaCruz). […]

T1 sequence (O14746 whole entry): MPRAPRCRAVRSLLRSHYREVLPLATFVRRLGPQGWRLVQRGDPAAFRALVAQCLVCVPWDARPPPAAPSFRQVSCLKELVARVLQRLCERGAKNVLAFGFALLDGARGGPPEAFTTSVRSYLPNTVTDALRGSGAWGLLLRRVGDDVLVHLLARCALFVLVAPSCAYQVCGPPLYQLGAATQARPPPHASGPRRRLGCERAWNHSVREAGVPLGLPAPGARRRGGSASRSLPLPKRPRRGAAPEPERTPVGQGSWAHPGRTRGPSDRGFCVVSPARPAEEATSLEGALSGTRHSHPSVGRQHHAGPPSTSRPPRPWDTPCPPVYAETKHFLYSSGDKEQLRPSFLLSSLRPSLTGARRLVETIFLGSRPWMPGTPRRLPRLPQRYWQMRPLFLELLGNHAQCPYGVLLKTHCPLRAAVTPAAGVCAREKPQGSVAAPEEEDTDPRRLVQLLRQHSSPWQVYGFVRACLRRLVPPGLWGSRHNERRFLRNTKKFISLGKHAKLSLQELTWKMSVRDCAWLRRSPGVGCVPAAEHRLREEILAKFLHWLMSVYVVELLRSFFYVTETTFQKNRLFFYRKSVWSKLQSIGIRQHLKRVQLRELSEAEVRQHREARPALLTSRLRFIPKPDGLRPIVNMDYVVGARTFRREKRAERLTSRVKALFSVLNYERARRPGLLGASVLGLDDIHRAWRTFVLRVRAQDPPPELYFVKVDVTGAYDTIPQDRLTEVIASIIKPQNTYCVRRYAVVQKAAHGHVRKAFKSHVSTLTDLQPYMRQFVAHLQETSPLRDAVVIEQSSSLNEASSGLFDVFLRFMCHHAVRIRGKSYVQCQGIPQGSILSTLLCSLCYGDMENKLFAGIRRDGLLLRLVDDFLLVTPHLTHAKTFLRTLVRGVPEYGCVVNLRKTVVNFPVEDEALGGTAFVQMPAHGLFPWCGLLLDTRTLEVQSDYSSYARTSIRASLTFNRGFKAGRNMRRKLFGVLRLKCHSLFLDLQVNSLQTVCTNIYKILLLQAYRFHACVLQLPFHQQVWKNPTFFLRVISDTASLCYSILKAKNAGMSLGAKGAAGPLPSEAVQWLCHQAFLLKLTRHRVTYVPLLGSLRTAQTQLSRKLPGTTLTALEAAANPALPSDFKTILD

B1: N-terminal HA-tagged MAPKAPK3 (enzyme)
chain: MDGETAEEQGGPVPPPVAPGGPGLGGAPGGRREPKKYAVTDDYQLSKQVLGLGVNGKVLECFHRRTGQKCALKLLYDSPKARQEVDHHWQASGGPHIVCILDVYENMHHGKRCLLIIMECMEGGELFSRIQERGDQAFTEREAAEIMRDIGTAIQFLHSHNIAHRDVKPENLLYTSKEKDAVLKLTDFGFAKETTQNALQTPCYTPYYVAPEVLGPEKYDKSCDMWSLGVIMYILLCGFPPFYSNTGQAISPGMKRRIRLGQYGFPNPEWSEVSEDAKQLIRLLLKTDPTERLTITQFMNHPWINQSMVVPQTPLHTARVLQEDKDHWDEVKEEMTSALATMRVDYDQVKIKDLKTSNNRLLNKRRKKQAGSSSASQGCNNQ
notes: Expressed in HEK293T cells from pcDNA3.1(+); also called HA-MAPKAPK3; not shown: HA-tag at the N-terminus
B1: binds.
